What all share (experiment): co-IP
The target in assay [1] is human mitochondrial adenine nucleotide translocator, C-terminal c-Myc-DDK tag (human) (UniProt P12235).
Assay [2] addresses human translocase of outer mitochondrial membrane 22 homolog, C-terminal c-Myc and DDK tags (human) (UniProt Q9NS69).
Assay [3] concerns the target Full length human BKCa alpha-subunit starting from Met1, 3xHA-tagged, with DEC splice insert (human).
The target of assay [4] is Full length human BKCa alpha-subunit starting from Met1, 3xHA-tagged, without DEC (human).
For assay [5], the target named is human BKCa alpha-subunit starting from Met3, untagged (human).
Sequence of human BKCa alpha-subunit starting from Met3, untagged (human) (Q12791 whole entry): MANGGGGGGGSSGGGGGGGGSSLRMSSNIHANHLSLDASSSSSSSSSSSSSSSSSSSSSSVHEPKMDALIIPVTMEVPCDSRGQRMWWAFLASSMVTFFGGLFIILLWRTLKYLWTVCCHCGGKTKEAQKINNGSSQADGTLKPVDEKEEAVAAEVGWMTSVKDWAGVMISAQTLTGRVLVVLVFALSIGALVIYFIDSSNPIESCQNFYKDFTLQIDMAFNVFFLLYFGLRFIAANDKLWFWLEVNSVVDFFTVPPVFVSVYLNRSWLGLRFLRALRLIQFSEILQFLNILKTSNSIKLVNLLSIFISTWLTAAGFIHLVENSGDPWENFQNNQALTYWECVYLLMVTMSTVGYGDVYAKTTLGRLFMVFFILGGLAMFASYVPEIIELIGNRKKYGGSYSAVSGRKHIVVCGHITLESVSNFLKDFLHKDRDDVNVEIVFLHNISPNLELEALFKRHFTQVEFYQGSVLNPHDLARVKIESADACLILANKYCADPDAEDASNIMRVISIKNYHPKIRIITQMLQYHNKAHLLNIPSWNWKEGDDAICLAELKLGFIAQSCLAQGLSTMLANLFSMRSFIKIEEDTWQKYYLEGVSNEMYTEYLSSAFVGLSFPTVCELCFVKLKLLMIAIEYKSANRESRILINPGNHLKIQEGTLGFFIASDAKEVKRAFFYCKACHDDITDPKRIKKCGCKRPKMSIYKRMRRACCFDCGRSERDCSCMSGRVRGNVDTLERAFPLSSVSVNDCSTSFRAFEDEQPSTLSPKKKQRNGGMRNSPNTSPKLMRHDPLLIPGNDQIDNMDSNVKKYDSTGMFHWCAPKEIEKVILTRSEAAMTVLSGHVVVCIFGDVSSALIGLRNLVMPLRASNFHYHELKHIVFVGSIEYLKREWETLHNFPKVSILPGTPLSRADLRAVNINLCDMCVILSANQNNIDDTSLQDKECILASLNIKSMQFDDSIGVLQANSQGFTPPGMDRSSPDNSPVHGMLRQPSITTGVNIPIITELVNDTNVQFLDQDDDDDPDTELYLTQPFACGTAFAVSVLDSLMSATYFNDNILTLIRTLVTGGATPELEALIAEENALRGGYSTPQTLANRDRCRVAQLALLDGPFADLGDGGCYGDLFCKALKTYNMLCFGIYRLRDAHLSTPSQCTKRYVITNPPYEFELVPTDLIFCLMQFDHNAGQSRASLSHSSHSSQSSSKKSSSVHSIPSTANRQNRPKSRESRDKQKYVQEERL

Sequence of Full length human BKCa alpha-subunit starting from Met1, 3xHA-tagged, without DEC (human) (Q12791 whole entry): as above
Sequence of Full length human BKCa alpha-subunit starting from Met1, 3xHA-tagged, with DEC splice insert (human) (Q12791 whole entry, canonical isoform): as the sequence (Q12791 whole entry) above

For c-Myc-BKCa 1-711 (domain or fragment), in assay [1], the Co-IP efficiency (compared to wild-type BKCa) came to 0.91. Take “c-Myc-BKCa 322-1113 (domain or fragment)”: the Co-IP efficiency (compared to wild-type BKCa) in assay [1] is 0.17. Further, the Co-IP efficiency (wild-type BKCa = 1) in assay [2] stood at 0.33.

“c-Myc-BKCa 679-1113 (domain or fragment)” had a Co-IP efficiency (compared to wild-type BKCa) in assay [1] of 0.33. Also, in assay [2], the Co-IP efficiency (wild-type BKCa = 1) is 0.42.

B1: human translocase of outer mitochondrial membrane 22 homolog, C-terminal c-Myc and DDK tags (natural protein)
chain: MAAAVAAAGAGEPQSPDELLPKGDAEKPEEELEEDDDEELDETLSERLWGLTEMFPERVRSAAGATFDLSLFVAQKMYRFSRAALWIGTTSFMILVLPVVFETEKLQMEQQQQLQQRQILLGPNTGLSGGMPGALPSLPGKI
Take B1: the Co-IP efficiency in assay [3] was 0.91; in assay [4] it was 0.89.

B2: human mitochondrial adenine nucleotide translocator, C-terminal c-Myc-DDK tag (natural protein)
chain: MGDHAWSFLKDFLAGGVAAAVSKTAVAPIERVKLLLQVQHASKQISAEKQYKGIIDCVVRIPKEQGFLSFWRGNLANVIRYFPTQALNFAFKDKYKQLFLGGVDRHKQFWRYFAGNLASGGAAGATSLCFVYPLDFARTRLAADVGKGAAQREFHGLGDCIIKIFKSDGLRGLYQGFNVSVQGIIIYRAAYFGVYDTAKGMLPDPKNVHIFVSWMIAQSVTAVAGLVSYPFDTVRRRMMMQSGRKGADIMYTGTVDCWRKIAKDEGAKAFFKGAWSNVLRGMGGAFVLVLYDEIKKYV
The molecule B2 had a Co-IP efficiency (BKCa-DEC = 1) in assay [5] of 0.69.

Source of the values: publication PMC5332438.
